Results published in patent US20240368617A1, “NPR1 VARIANT TO ENHANCE PLANT RESISTANCE TO BIOTIC AND ABIOTIC STRESSES AND METHOD THEREOF” (Duke University, published 2024).

Columns and labels:
[1] = target: the molecule itself; assay: X-ray crystal structure, 1.5 A; self-association
Experimental: The Arabidopsis TGA3 NID (Ala160-Thr384) was cloned into the pTrcHis vector (Thermo Fisher Scientific) as a His10-MBP fusion protein containing a PreScission protease site following MBP and a C-terminal tandem Flag-HA tag. The purification procedure was per-formed similarly to that of Arabidopsis TGA3 (Asn87-Thr384) except that the size-exclusion chromatography buffer contained 20 mM HEPES (pH 7.5), 150 mM NaCl and 1 mM TCEP. Protein crystals were grown using the sitting-drop vapor diffusion method at 20° C. Each drop contained 1 μl of the protein solution mixed with 1 μl of the reservoir solution (0.1 m sodium acetate at pH 5.0, 20% (v/v) MPD). Diffraction quality protein crystals were collected after 1 week and cryoprotected with the reservoir solution also containing 25% glycerol.

[2] = target: the molecule itself; assay: X-ray crystal structure of NPR1(deltaSBD); tetramer in the crystal
Experimental: 5. X-ray crystallography studies of NPR1 (ΔSBD)) and the TGA3 NID. Arabidopsis NPR1 (²SBD) (Thr39-Asp410) was cloned into the pTrcHis vector (Thermo Fisher Scientific) as a His10-MBP fusion protein containing a PreScission protease site following MBP and a C-terminal Strep tag. Expression and purification of NPR1 (²SBD) was performed using similar procedures to those described above for E. coli-expressed NPR1, except that the size-exclusion chromatography buffer contained 20 mM HEPES (pH 7.5), 150 mM NaCl and 1 mM TCEP. Protein crystals were grown using the sitting-drop vapor diffusion method at 20° C. Each drop was prepared by mixing 1 μl of the protein solution at 6 mg ml-1 with 1 μl of the reservoir solution containing 0.1 M HEPES (pH 7.5), 19% PEG 3350, 0.25 m tri-sodium citrate. Diffraction-quality protein crystals were collected after 1 week and cryoprotected with the reservoir solution containing 25% glycerol.

[3] = target: the molecule itself; assay: hydrogen peroxide-induced oligomerization, non-reducing SDS-PAGE
Experimental: WT NPR1 BTB/BHB (Thr39-Lys262) and the npr1(C156A), npr1 (C82A) and npr1(C212V/C216A/C223L) mutants were cloned into the pTrcHis vector (Thermo Fisher Scientific) as His10-MBP fusion proteins with a PreScission protease site following MBP and a C-terminal Strep tag. The proteins were expressed and purified similarly to the NPR1 (²SBD) as described above. The NPR1 BTB/BHB WT and mutant proteins at a concentration of 25 μM were incubated with 1 mM hydrogen peroxide in a buffer containing 125 mM HEPES and 150 mM NaCl at pH 8.0 at room temperature for 45 min. The oxidized samples were incubated with 50 mM iodoacetamide for 5 min, mixed with 4× SDS loading dye and analyzed using SDS-PAGE in the absence of any reducing reagent.

TGA3 (Asn87-Thr384) = target: T1, TGA3 (Asn87-Thr384) (Arabidopsis thaliana, UniProt Q39234 Q39234:87-384); assay: EMSA; details: tags: His10-MBP (PreScission site) N-terminal, C-terminal tandem Flag-HA; AT1G22070; E. coli; label: 6-FAM
T1 sequence: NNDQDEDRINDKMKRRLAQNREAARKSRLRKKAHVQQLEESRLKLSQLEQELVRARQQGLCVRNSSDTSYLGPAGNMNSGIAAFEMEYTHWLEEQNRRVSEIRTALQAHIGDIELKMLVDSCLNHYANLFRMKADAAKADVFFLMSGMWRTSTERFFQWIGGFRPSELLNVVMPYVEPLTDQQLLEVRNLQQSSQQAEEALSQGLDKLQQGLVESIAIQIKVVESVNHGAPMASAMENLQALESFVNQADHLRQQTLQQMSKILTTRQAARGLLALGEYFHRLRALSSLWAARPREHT
Experimental: The npr1(dim) mutant (L49D/F53D/V56D/V83K) was cloned into the pTrcHis vector (Thermo Fisher Scientific) as a His10-MBP fusion protein containing a PreScission protease site following MBP and a C-terminal Strep tag, and was expressed and purified similarly to the WT NPR 1 protein. Purified TGA3 (Asn87-Thr384) at a concentration of 0.6 μM and WT NPR1 or the npr1(dim) mutant at a concentration of 8 μM were used in the EMSA with the 6-fluorescein (6-FAM)-labelled oligonucleotide probes (200 nM) containing the LS5 and LS7 as-I cis-elements of the SA-responsive PRI gene promoter (LS5/LS7, 6-FAM-C-ggg[…]ggg) or DNA sequences with the two as-1 regions replaced with adenosines (LS5/LS7, 6-FAM-C-ggg[…]ggg), with the LS7 as-1 element replaced with adenosines (LS5/LS7, 6-FAM-C-ggg[…]-GAggg) or with the LS5 as-1 element replaced with adenosines (LS5/LS7, 6-FAM-C-ggg[…]ggg) as well as their complementary oligonucleotides (Integrated DNA Technologies). The uppercase bases indicate the LS5/LS7 sequence; the lowercase bases indicate overhangs outside the LS5/LS7 sequence; and bases replaced with adenosines are indicated with A's in the small capital font. Pairs of complementary DNA strands were annealed before the binding reaction. For each binding reaction, the desired protein combination was mixed with the target DNA probe together with 30 ng/μL of poly (dI-dC) (non-specific competitor, Thermo Fisher Scientific) in a binding buffer containing 20 mM HEPES (pH 8.0), 300 mM NaCl, 10% glycerol, 1 mM DTT and 0.2 mM SA. […] After electrophoresis, the gel was scanned with the Typhoon FLA 7000 imager (GE Healthcare).

B1: Arabidopsis TGA3 NID (Ala160-Thr384) with C-terminal tandem Flag-HA tag (other, Arabidopsis thaliana, UniProt Q39234 160-384, looked up)
chain: AGNMNSGIAAFEMEYTHWLEEQNRRVSEIRTALQAHIGDIELKMLVDSCLNHYANLFRMKADAAKADVFFLMSGMWRTSTERFFQWIGGFRPSELLNVVMPYVEPLTDQQLLEVRNLQQSSQQAEEALSQGLDKLQQGLVESIAIQIKVVESVNHGAPMASAMENLQALESFVNQADHLRQQTLQQMSKILTTRQAARGLLALGEYFHRLRALSSLWAARPREHT
notes: range 160-384; Crystallised as a dimer with palmitate (PDB 7TAE); not shown: C-terminal tandem Flag-HA tag
B1: binds [1].

B2: Arabidopsis NPR1(deltaSBD) (Thr39-Asp410) with C-terminal Strep tag (other)
chain: TGPDVSALQLLSNSFESVFDSPDDFYSDAKLVLSDGREVSFHRCVLSARSSFFKSALAAAKKEKDSNNTAAVKLELKEIAKDYEVGFDSVVTVLAYVYSSRVRPPPKGVSECADENCCHVACRPAVDFMLEVLYLAFIFKIPELITLYQRHLLDVVDKVVIEDTLVILKLANICGKACMKLLDRCKEIIVKSNVDMVSLEKSLPEELVKEIIDRRKELGLEVPKVKKHVSNVHKALDSDDIELVKLLLKEDHTNLDDACALHFAVAYCNVKTATDLLKLDLADVNHRNPRGYTVLHVAAMRKEPQLILSLLEKGASASEATLEGRTALMIAKQATMAVECNNIPEQCKHSLKGRLCVEILEQEDKREQIPRD
notes: E. coli expressed, His10-MBP removed; Crystal structure PDB 7MK3; two dimers stack to a tetramer in the crystal; also called NPR1 (ASBD); NPR1 (^2SBD); not shown: C-terminal Strep tag
B2: binds [2].

B3: WT NPR1 BTB/BHB (Thr39-Lys262) with C-terminal Strep tag (other)
chain: TGPDVSALQLLSNSFESVFDSPDDFYSDAKLVLSDGREVSFHRCVLSARSSFFKSALAAAKKEKDSNNTAAVKLELKEIAKDYEVGFDSVVTVLAYVYSSRVRPPPKGVSECADENCCHVACRPAVDFMLEVLYLAFIFKIPELITLYQRHLLDVVDKVVIEDTLVILKLANICGKACMKLLDRCKEIIVKSNVDMVSLEKSLPEELVKEIIDRRKELGLEVPK
notes: E. coli expressed, His10-MBP fusion with PreScission site, purified as NPR1(deltaSBD); Used in hydrogen peroxide oxidation assay; also called NPR1 BTB-BHB domain; NPR1 (residues Thr39-Lys262); not shown: C-terminal Strep tag
B3: binds [3].

B4: PR1 promoter LS5-/LS7- (both as-1 replaced) (dsDNA)
DNA 1: GGGCTAAAAAAAAAGTAAAATAGAAAAAAAAAGAGGG
DNA 2: CCCTCTTTTTTTTTCTATTTTACTTTTTTTTTAGCCC
B4: no binding (TGA3 (Asn87-Thr384)).
